For orientation: stoichiometry N means the number of molecules, sites or subunits per partner or assembly.

In this assay the target is T1, Rtg3-6XHis (recombinant, co-expressed with Rtg1) (C. albicans, UniProt A0A1D8PF20 1-520).
T1 construct: Rtg3, basic helix-loop-helix transcription factor of Candida albicans; also called tagged Rtg3; Rtg3X6his; source: E. coli BL21(DE3), co-expressed with Rtg1 from pColaDuet (pLC1452), purified (Ni-NTA, heparin, SEC)
T1 sequence (looked up): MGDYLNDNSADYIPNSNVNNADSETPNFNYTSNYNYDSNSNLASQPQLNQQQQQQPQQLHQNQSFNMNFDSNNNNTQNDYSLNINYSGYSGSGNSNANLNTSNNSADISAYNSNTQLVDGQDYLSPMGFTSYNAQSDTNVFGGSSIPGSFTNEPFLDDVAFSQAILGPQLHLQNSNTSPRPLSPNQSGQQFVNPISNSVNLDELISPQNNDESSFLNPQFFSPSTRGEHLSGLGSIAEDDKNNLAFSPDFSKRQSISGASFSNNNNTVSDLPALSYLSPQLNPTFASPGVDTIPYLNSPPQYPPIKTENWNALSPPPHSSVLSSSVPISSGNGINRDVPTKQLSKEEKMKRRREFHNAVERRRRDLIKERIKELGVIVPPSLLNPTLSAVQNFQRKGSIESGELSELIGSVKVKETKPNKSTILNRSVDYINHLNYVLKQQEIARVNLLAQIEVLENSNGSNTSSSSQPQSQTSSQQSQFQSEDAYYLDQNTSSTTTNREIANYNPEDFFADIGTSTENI
Put plainly: SEC; Rtg1 and Rtg3-6XHis co-expressed in E. coli, co-purified by Ni-NTA and heparin, then HiLoad 16/600 Superdex 200 pg; 25 mM HEPES-NaOH pH 7.8, 300 mM NaCl, 5% glycerol; ambient temperature; fractions on SDS-PAGE, Coomassie. Conditions: both partners purified. On the technique in general: In gel filtration, larger molecules generally elute earlier.

B1: Rtg1 (recombinant, co-expressed with Rtg3-6XHis) (natural protein, C. albicans, UniProt Q5APP3 1-274, looked up)
chain: MSQFGEFYDTYSVENNQQYDTDLNNSTNTPIVQSKQRNDNIIPSINIKQEDFDSVLSGSLDVKKQLSSSLNTAGVGIGSSYGNGGISKPQSRRNSTYIKSHEGSDNEDEDDQNDKDVGNERKRRDNINDKIQELLTLIPSEFFQSNTDNNTKTGTKVVKENSPEDDAVKNSGTKDGKPNKGQILTKSVEYLQYLQNLIDENNRKEVELIMRLKTLELKAANRPSENIPIRIGYTSAEKALGEIGVGPCSEEYFKNVLIKSASTSKSGRRGSTSG
notes: Rtg1, basic helix-loop-helix transcription factor of Candida albicans; untagged; source: E. coli BL21(DE3), co-expressed with Rtg3-6XHis from pColaDuet (pLC1452), purified (Ni-NTA, heparin, SEC)
Consider B1, for which the “stoichiometry N” value is approximately 1.

The values are drawn from paper PMC10374912 (Nature Communications, 2023).
